Data as given in paper PMC4794898.

Columns and labels:
[1] = biological target: PF3D7_0919900 recombinant protein, KSVSF to KSASA (Plasmodium falciparum); assay: ELISA; plates coated with 25 pmol/well of each recombinant Pip in PBS overnight at 4 °C; biotin-PfPP1 4 pmol/well in solution
[2] = biological target: PF3D7_0220000 recombinant protein with a stop in the second position of the KKVRF motif (Plasmodium falciparum); assay: as above

Question: With “biotin labeled PfPP1 (from UniProt Q8ILV1 1-304) (enzyme)” as the substance, how does the decrease of the binding against the wild protein (100 %) [1] read?
Answer: The decrease of the binding against the wild protein (100 %) was 70%.

Question: What about the decrease of the binding against the wild protein (100 %) [2] of the same substance?
Answer: Its decrease of the binding against the wild protein (100 %) is 86%.
